The source of these data is FireProtDB (doi:10.1093/protein/gzt061).

The conditions of the data set: Rhodococcus erythropolis; pH 7.1; Thermal; Fluorescence; Potassium phosphate 50mM; transition: 2; reversible: no; whole UniProt chain shown.

B1: Limonene-1,2-epoxide hydrolase wild type, Q9ZAG3 (protein)
chain: MTSKIEQPRWASKDSAAGAASTPDEKIVLEFMDALTSNDAAKLIEYFAEDTMYQNMPLPPAYGRDAVEQTLAGLFTVMSIDAVETFHIGSSNGLVYTERVDVLRALPTGKSYNLSILGVFQLTEGKITGWRDYFDLREFEEAVDLPLRG
In the case of B1, the melting temperature (Tm) worked out at 48.8 °C.

By Tm is commonly meant the temperature at which the thermal transition is half complete.
